Reference: patent US20220153848A1 (DRAGONFLY THERAPEUTICS, published 2022)

B1: A49MI-Duobody-TriNKET-Onartuzumab (bispecific antibody, human IgG1, kappa)
heavy 1: not shown
light 1: DIQMTQSPSSLSASVGDRVTITCKSSQSLLYTSSQKNYLAWYQQKPGKAPKLLIYWASTRESGVPSRFSGSGSGTDFTLTISSLQPEDFATYYCQQYYAYPWTFGQGTKVEIKRTVAAPSVFIFPPSDEQLKSGTASVVCLLNNFYPREAKVQWKVDNALQSGNSQESVTEQDSKDSTYSLSSTLTLSKADYEKHKVYACEVTHQGLSSPVTKSFNRGEC
heavy 2: not shown
light 2: DIQMTQSPSSVSASVGDRVTITCRASQGISSWLAWYQQKPGKAPKLLIYAASSLQSGVPSRFSGSGSGTDFTLTISSLQPEDFATYYCQQGVSFPRTFGGGTKVEIKRTVAAPSVFIFPPSDEQLKSGTASVVCLLNNFYPREAKVQWKVDNALQSGNSQESVTEQDSKDSTYSLSSTLTLSKADYEKHKVYACEVTHQGLSSPVTKSFNRGEC
B2: A49MI-Duobody-TriNKET-Emibetuzumab (bispecific antibody, human IgG1, kappa)
heavy 1: not shown
light 1: DIQMTQSPSSLSASVGDRVTITCSVSSSVSSIYLHWYQQKPGKAPKLLIYSTSNLASGVPSRFSGSGSGTDFTLTISSLQPEDFATYYCQVYSGYPLTFGGGTKVEIKRTVAAPSVFIFPPSDEQLKSGTASVVCLLNNFYPREAKVQWKVDNALQSGNSQESVTEQDSKDSTYSLSSTLTLSKADYEKHKVYACEVTHQGLSSPVTKSFNRGEC
heavy 2: not shown
light 2: B1 light 2
B3: A49MI-Duobody-TriNKET-ABT-700 (bispecific antibody, human IgG1, kappa)
heavy 1: not shown
light 1: not shown
heavy 2: not shown
light 2: B1 light 2

These binders were tested against c-MET on the surface of HT29 and HCT-116 human colon cancer cells (human, UniProt P08581 25-1390) (assay: cell-based or functional assay).
c-MET on the surface of HT29 and HCT-116 human colon cancer cells, sequence (P08581 25-1390 limits assumed): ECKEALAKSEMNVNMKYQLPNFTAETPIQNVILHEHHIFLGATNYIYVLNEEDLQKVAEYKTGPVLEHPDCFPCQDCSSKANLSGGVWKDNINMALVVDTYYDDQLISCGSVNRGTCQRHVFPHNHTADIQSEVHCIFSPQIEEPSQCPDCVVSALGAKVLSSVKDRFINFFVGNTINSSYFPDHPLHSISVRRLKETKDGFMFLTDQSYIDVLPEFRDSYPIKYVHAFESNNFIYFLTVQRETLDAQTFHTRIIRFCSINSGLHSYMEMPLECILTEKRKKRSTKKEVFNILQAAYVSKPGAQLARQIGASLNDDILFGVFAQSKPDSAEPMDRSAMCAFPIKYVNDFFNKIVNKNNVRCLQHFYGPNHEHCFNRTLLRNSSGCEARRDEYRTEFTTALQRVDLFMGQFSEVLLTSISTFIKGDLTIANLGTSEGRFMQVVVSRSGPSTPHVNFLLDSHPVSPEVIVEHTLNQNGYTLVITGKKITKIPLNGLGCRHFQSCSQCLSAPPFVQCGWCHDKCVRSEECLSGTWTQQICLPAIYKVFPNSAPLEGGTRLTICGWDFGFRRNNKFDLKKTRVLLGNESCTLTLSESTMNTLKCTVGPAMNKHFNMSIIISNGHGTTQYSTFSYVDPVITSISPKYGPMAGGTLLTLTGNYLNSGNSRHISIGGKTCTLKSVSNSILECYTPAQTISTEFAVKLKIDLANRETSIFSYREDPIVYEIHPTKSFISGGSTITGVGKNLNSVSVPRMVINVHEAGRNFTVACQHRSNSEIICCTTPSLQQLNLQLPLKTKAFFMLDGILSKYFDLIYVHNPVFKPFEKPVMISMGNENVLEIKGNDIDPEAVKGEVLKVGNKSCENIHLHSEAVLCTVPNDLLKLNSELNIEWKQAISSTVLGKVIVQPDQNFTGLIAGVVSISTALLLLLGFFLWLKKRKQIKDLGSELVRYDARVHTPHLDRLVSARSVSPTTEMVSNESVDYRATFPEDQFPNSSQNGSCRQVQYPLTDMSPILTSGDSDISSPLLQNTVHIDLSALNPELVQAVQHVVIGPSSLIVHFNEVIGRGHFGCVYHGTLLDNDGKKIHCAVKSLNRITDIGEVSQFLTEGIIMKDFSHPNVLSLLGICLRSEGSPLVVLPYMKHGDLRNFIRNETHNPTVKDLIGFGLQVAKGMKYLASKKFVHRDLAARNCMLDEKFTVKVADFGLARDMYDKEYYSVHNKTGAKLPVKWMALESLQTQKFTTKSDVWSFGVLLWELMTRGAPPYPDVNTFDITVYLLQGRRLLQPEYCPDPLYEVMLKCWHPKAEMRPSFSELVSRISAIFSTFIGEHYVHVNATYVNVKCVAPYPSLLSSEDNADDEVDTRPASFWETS
B1 was tested, and the “EC50 of human NK cell lysis of c-MET positive target cells (DELFIA cytotoxicity assay)” value (shortened to “EC50”) was < 1 nM. With B2 the “EC50” value was < 1 nM. In the case of B3, the “EC50” value is reported as < 1 nM.
